Patent publication US20250043302A1, “MUTATED HYDROXYPHENYLPYRUVATE DIOXYGENASE POLYPEPTIDE, AND CODING GENE AND USE THEREOF” (BEIJING DABEINONG BIOTECHNOLOGY CO., LTD., priority 2021, published 2025)

B1: PfHPPDm-F372A-02: nucleotide sequence encoding Pseudomonas fluorescens HPPD with F372A; vector DBN11771 (nucleic acid)
DNA: ATGGCCGATTTGTACGAGAACCCAATGGGACTCATGGGTTTCGAGTTCATTGAGTTCGCTTCCCCCACCCCAGGTACTTTGGAGCCTATTTTCGAGATCATGGGCTTCACTAAGGTTGCCACACACAGGTCTAAGAATGTGCATCTCTACCGCCAAGGAGAGATTAACCTGATCCTTAACAATGAGCCTAATAGCATCGCCTCATACTTCGCTGCTGAGCATGGTCCATCTGTTTGCGGCATGGCTTTCAGAGTGAAGGATTCACAAAAGGCCTACAACAGGGCTTTGGAGCTCGGCGCCCAGCCCATTCATATCGACACCGGACCTATGGAGCTGAATCTTCCTGCCATTAAGGGCATCGGCGGAGCTCCATTGTACCTCATTGATCGCTTCGGCGAGGGCTCCTCTATCTACGATATCGACTTCGTGTACCTGGAGGGCGTTGAGAGAAACCCTGTGGGAGCTGGTCTGAAGGTTATCGACCACCTTACTCATAATGTTTACAGAGGAAGGATGGTGTACTGGGCCAACTTCTACGAGAAGCTGTTCAATTTCCGCGAGGCTAGATACTTCGATATTAAGGGCGAGTACACAGGACTTACCTCCAAGGCCATGTCTGCTCCCGACGGTATGATTAGGATCCCATTGAACGAGGAGAGCTCAAAGGGCGCCGGACAGATTGAGGAGTTCCTCATGCAATTCAATGGTGAAGGCATCCAGCACGTTGCTTTCCTGACAGATGACCTTGTGAAGACCTGGGATGCCCTCAAGAAGATTGGCATGAGGTTCATGACCGCTCCACCTGACACTTACTACGAGATGTTGGAGGGACGCCTCCCTGATCATGGCGAGCCCGTTGACCAGCTGCAAGCTAGAGGAATCCTCCTGGATGGTTCCTCTGTGGAGGGCGACAAGAGGCTTTTGCTCCAAATTGCTAGCGAGACTCTTATGGGACCCGTGTTCTTCGAGTTCATCCAGAGGAAGGGCGATGACGGATTCGGCGAGGGCAACTTCAAGGCCCTGTTCGAGTCTATTGAGAGAGATCAGGTGAGGCGCGGCGTTCTTACAGCTGACTGA
modifications: PfHPPDm-F372A-02 Nucleotide Sequence
notes: vector DBN11771
B2: PfHPPDm-F383W-02: nucleotide sequence encoding Pseudomonas fluorescens HPPD with F383W; vector DBN11772 (nucleic acid)
DNA: ATGGCCGATTTGTACGAGAACCCAATGGGACTCATGGGTTTCGAGTTCATTGAGTTCGCTTCCCCCACCCCAGGTACTTTGGAGCCTATTTTCGAGATCATGGGCTTCACTAAGGTTGCCACACACAGGTCTAAGAATGTGCATCTCTACCGCCAAGGAGAGATTAACCTGATCCTTAACAATGAGCCTAATAGCATCGCCTCATACTTCGCTGCTGAGCATGGTCCATCTGTTTGCGGCATGGCTTTCAGAGTGAAGGATTCACAAAAGGCCTACAACAGGGCTTTGGAGCTCGGCGCCCAGCCCATTCATATCGACACCGGACCTATGGAGCTGAATCTTCCTGCCATTAAGGGCATCGGCGGAGCTCCATTGTACCTCATTGATCGCTTCGGCGAGGGCTCCTCTATCTACGATATCGACTTCGTGTACCTGGAGGGCGTTGAGAGAAACCCTGTGGGAGCTGGTCTGAAGGTTATCGACCACCTTACTCATAATGTTTACAGAGGAAGGATGGTGTACTGGGCCAACTTCTACGAGAAGCTGTTCAATTTCCGCGAGGCTAGATACTTCGATATTAAGGGCGAGTACACAGGACTTACCTCCAAGGCCATGTCTGCTCCCGACGGTATGATTAGGATCCCATTGAACGAGGAGAGCTCAAAGGGCGCCGGACAGATTGAGGAGTTCCTCATGCAATTCAATGGTGAAGGCATCCAGCACGTTGCTTTCCTGACAGATGACCTTGTGAAGACCTGGGATGCCCTCAAGAAGATTGGCATGAGGTTCATGACCGCTCCACCTGACACTTACTACGAGATGTTGGAGGGACGCCTCCCTGATCATGGCGAGCCCGTTGACCAGCTGCAAGCTAGAGGAATCCTCCTGGATGGTTCCTCTGTGGAGGGCGACAAGAGGCTTTTGCTCCAAATTTTCAGCGAGACTCTTATGGGACCCGTGTGGTTCGAGTTCATCCAGAGGAAGGGCGATGACGGATTCGGCGAGGGCAACTTCAAGGCCCTGTTCGAGTCTATTGAGAGAGATCAGGTGAGGCGCGGCGTTCTTACAGCTGACTGA
modifications: PfHPPDm-F383W-02 Nucleotide Sequence
notes: vector DBN11772

System: Arabidopsis thaliana T1 plants
Assay: Mesotrione tolerance of transgenic Arabidopsis thaliana T1 plants (spray, bleached leaf area grade, damage score)
Assay type: in vivo
Parameters: Scores: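 damage score 0-100 computed as Σ(N×S)/(T×M)×100 over grades 0-3 with higher meaning more damage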
Conditions: Arabidopsis thaliana T1 plants; for Grade 0 (classification and statistics of the grade of pesticide damage; number of plants) / Grade 1 (classification and statistics of the grade of pesticide damage; number of plants) / Grade 2 (classification and statistics of the grade of pesticide damage; number of plants) / Grade 3 (classification and statistics of the grade of pesticide damage; number of plants): 16 plants
Description: T1 transformants were initially selected from the untransformed seeds using a glufosinate selection scheme. The Arabidopsis thaliana T1 plants (AsHPPD-02) into which the AsHPPD-02 nucleotide sequence was introduced, the Arabidopsis thaliana T1 plants (AsHPPDm-F372A-02) into which the AsHPPDm-F372A-02 nucleotide sequence was introduced, the Arabidopsis thaliana T1 plants (AsHPPDm-F383W-02) into which the AsHPPDm-F383W-02 nucleotide sequence was introduced, the Arabidopsis thaliana T1 plants (AsHPPDm-F372A-F383W-02) into which the AsHPPDm-F372A-F383W-02 nucleotide sequence was introduced, the Arabidopsis thaliana T1 plants (DBN11726N) into which the control recombinant expression vector DBN11726N was introduced, and the wild-type Arabidopsis thaliana plants (CK) (18 days after sowing) were sprayed respectively with topramezone at three concentrations (100 g ai/ha (four-fold field concentration, 4×), 200 g ai/ha (eight-fold field concentration, 8×), and 0 g ai/ha (water, 0×)), isoxaflutole at three concentrations (140 g ai/ha (two-fold field concentration, 2×), 280 g ai/ha (four-fold field concentration, 4×), and 0 g ai/ha (water, 0×)), and mesotrione at three concentrations (210 g ai/ha (two-fold field concentration, […]), 420 g ai/ha (four-fold field concentration, 4×), and 0 g ai/ha (water, 0×)), to determine the tolerance of Arabidopsis thaliana to the herbicides. The degree of damage caused by the herbicide was measured for each plant according to the proportion of bleached leaf area (the proportion of bleached leaf area=bleached leaf area/total leaf area×100%) 7 days after spraying (7 DAT): the case where there is basically no bleached phenotype is defined as grade 0, the case where the proportion of bleached leaf area is less than 50% is defined as grade 1, the case where the proportion of bleached leaf area is more than 50% is defined as grade 2, and the case where the proportion of bleached leaf area is 100% grade is defined as grade 3.
According to the method as described above in point 6 of Example 1, the aforementioned Arabidopsis thaliana T1 plants and wild-type Arabidopsis thaliana plants (CK) (18 days after sowing) were sprayed respectively with topramezone at three concentrations (25 g ai/ha (one-fold field concentration, 1×). 100 g ai/ha (four-fold field concentration, 4×), and 0 g ai/ha (water, 0×)), isoxaflutole at three concentrations (35 g ai/ha (half-fold field concentration, 0.5×). 70 g ai/ha (one-fold field concentration, 1×), and 0 g ai/ha (water, 0×)), and mesotrione at three concentrations (52.5 g ai/ha (half-fold field concentration, 0.5×), 105 g ai/ha (one-fold field concentration, 1×), and 0 g ai/ha (water, 0×)) to detect the tolerance of Arabidopsis thaliana to the herbicides.
According to the method as described above in point 6 of Example 1, the aforementioned Arabidopsis thaliana T1 plants and wild-type Arabidopsis thaliana plants (CK) (18 days after sowing) were sprayed with topramezone at three different concentrations (i.e., 100 g ai/ha (four-fold field concentration, 4×), 200 g ai/ha (eight-fold field concentration, 8×) and 0 g ai/ha (water, 0×)), isoxaflutole at three different concentrations (i.e., 140 g ai/ha (two-fold field concentration, 2×), 280 g ai/ha (four-fold field concentration, 4×) and 0 g ai/ha (water, 0×)), and mesotrione at three different concentrations (i.e., 210 g ai/ha (two-fold field concentration, 2×), 420 g ai/ha (four-fold field concentration, 4×) and 0 g ai/ha (water, 0×)) respectively to detect the herbicide tolerance of Arabidopsis thaliana. […]

Molecule	Resistance evaluation (mesotrione 52.5 g ai/ha)	Scores (mesotrione 52.5 g ai/ha)	Grade 0 (classification and statistics of the grade of pesticide damage; number of plants) (mesotrione 52.5 g ai/ha)	Grade 1 (classification and statistics of the grade of pesticide damage; number of plants) (mesotrione 52.5 g ai/ha)	Grade 2 (classification and statistics of the grade of pesticide damage; number of plants) (mesotrione 52.5 g ai/ha)	Grade 3 (classification and statistics of the grade of pesticide damage; number of plants) (mesotrione 52.5 g ai/ha)	Resistance evaluation (mesotrione 105 g ai/ha)	Scores (mesotrione 105 g ai/ha)	Grade 0 (classification and statistics of the grade of pesticide damage; number of plants) (mesotrione 105 g ai/ha)	Grade 1 (classification and statistics of the grade of pesticide damage; number of plants) (mesotrione 105 g ai/ha)	Grade 2 (classification and statistics of the grade of pesticide damage; number of plants) (mesotrione 105 g ai/ha)	Grade 3 (classification and statistics of the grade of pesticide damage; number of plants) (mesotrione 105 g ai/ha)
B1	Moderately	31	6	7	1	2	Poorly resistant	58	0	4	12	0
B2	Non-resistant	77	0	0	11	5	Non-resistant	100	0	0	0	16
